The experiment concerns the target T1, SARS-CoV-2 ORF7b accessory protein, full length, with C-terminal SA linker and Strep-tag II (SARS-CoV-2, UniProt P0DTD8 1-43).
T1 construct: ORF7b of SARS-CoV-2, 43 residues, full length; NMR samples are isotope labelled on chosen amino acids (Leu, Phe and others); Forms heterogeneous multimers; no defined number of copies; also called ORF7b-ST; ORF7b^L:F; not shown: Strep-tag II, C-terminal, kept
T1 chain: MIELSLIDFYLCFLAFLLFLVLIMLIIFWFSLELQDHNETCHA
The experiment is described as follows: solid-state NMR (2D hChH reverse-MIRROR, intermolecular polarization transfer). The following applies: both partners purified.

B1: E-cadherin transmembrane domain (E641-R673), purified, Leu-labelled, for solid-state NMR (domain or fragment, human, UniProt P12830-2 641-673, looked up)
chain: EAGLQIPAILGILGGILALLILILLLLLFLRRR
notes: also called E-cadTM; E-cadTM^L; source: wheat-germ cell-free synthesis, purified
Turning to B1, the binding result is listed as “binds”.
